Columns and labels:
[1] = target: T1, CD26 on activated T cells (human, UniProt P27487 1-766); assay: T cell-monocyte conjugates, confocal microscopy
T1 construct: whole, on cells; also called CD26 on T cells

[2] = target: T2, GST-CD26 D1 (residues 507-766) (UniProt P27487 507-766); assay: GST pull-down from THP-1 lysate, immunoblot with anti-caveolin-1
T2 construct: Produced in COS-7 cells, on GSH beads; not shown: GST of mammalian vector pEBG

[3] = target: T3, GST-CD26 D2 (residues 267-584) (UniProt P27487 267-584); assay: as above
T3 construct: range 267-584; Produced in COS-7 cells, on GSH beads; not shown: GST of mammalian vector pEBG

[4] = target: MyD88 (in TT-loaded monocytes) (human, UniProt Q99836 1-296); assay: immunoprecipitation with anti-caveolin-1 pAb from TT-loaded monocytes
[5] = target: T4, IRAK-4 (in TT-loaded monocytes) (human, UniProt Q9NWZ3 1-460); assay: as above
T4 sequence: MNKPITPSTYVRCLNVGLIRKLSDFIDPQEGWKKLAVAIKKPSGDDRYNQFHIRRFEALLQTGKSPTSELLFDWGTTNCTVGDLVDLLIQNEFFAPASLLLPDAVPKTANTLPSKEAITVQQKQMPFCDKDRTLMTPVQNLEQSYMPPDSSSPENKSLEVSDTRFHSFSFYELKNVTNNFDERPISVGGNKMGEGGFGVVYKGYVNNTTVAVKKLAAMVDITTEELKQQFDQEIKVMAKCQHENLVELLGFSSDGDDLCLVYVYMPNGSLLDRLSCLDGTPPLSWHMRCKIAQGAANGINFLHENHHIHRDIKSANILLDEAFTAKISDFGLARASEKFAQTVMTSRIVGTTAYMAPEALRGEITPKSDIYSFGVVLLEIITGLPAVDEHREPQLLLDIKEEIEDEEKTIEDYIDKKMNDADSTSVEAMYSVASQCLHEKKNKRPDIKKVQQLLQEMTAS

[6] = target: endogenous Tollip (THP-1 cells, monocytes) (human, UniProt Q9H0E2 2-274); assay: immunoprecipitation with anti-caveolin-1 pAb from TT-loaded monocytes, immunoblot with anti-Tollip
[7] = target: T5, CD26 in J.CD26 cell lysate (Jurkat T cells with stable expression of CD26) (UniProt P27487 1-766); assay: GST pull-down from J.CD26 lysate, immunoblot with anti-CD26
T5 construct: Whole CD26 from transfected cells, used as lysate in the GST pull-down; also called CD26 transfected Jurkat T cells

[8] = target: T6, recombinant soluble CD26 (rsCD26 wt) (UniProt P27487 29-766, limits assumed); assay: confocal microscopy of transfected HEK293 cells
T6 construct: extracellular domain; Used free, conjugated with Texas red, or coated on latex beads; also called sCD26-TR; CD26-TR

[9] = target: T7, GFP-fused wild type CD26 (CD26 wt-GFP) on transfected HEK293 cells (UniProt P27487 1-766); assay: confocal microscopy of transfected HEK293 cells
T7 construct: also called CD26-EGFP; GFP-CD26 wt; not shown: EGFP of vector pEB6-CAG-EGFP (engineered variant of Aequorea victoria GFP)

[10] = target: T8, CD26 S630A-GFP on transfected HEK293 cells (UniProt P27487 1-766); assay: confocal microscopy of transfected HEK293 cells
T8 construct: also called DPPIV activity-deleted mutant (S630A); not shown: EGFP of vector pEB6-CAG-EGFP
T8 sequence (P27487 whole entry S630A): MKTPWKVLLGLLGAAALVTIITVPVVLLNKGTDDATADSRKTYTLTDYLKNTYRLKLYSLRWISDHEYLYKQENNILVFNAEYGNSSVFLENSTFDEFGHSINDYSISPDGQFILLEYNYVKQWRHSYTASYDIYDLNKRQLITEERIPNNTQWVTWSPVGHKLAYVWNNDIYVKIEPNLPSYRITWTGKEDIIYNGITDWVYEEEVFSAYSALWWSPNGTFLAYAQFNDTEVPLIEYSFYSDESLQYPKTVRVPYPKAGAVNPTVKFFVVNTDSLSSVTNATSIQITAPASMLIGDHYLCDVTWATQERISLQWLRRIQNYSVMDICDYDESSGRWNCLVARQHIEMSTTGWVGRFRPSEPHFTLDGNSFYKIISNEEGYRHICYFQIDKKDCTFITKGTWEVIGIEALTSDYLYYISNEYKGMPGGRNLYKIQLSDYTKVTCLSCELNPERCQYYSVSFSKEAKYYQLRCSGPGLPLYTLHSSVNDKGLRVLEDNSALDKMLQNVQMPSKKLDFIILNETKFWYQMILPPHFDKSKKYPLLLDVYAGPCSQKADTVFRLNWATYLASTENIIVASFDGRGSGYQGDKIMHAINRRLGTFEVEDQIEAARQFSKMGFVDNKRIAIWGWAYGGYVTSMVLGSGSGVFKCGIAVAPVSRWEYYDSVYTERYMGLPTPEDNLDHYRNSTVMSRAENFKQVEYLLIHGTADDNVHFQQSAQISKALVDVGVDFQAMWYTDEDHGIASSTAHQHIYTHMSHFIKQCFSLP

T5 sequence (P27487 whole entry): as the sequence (P27487 whole entry S630A) above, with A630S counted along it
T7 sequence (P27487 whole entry, the tested form may be a part): as the sequence (P27487 whole entry S630A) above, with A630S counted along it
T1 sequence (P27487 whole entry): as the sequence (P27487 whole entry S630A) above, with A630S counted along it
T2 sequence (P27487 507-766): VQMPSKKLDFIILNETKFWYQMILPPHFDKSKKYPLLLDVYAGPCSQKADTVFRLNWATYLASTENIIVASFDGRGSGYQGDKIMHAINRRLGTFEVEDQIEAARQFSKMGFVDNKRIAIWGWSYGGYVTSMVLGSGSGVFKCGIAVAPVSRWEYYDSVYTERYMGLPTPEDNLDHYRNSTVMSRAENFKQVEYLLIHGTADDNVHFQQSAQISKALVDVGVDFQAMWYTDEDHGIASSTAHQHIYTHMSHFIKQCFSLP
T3 sequence (P27487 267-584): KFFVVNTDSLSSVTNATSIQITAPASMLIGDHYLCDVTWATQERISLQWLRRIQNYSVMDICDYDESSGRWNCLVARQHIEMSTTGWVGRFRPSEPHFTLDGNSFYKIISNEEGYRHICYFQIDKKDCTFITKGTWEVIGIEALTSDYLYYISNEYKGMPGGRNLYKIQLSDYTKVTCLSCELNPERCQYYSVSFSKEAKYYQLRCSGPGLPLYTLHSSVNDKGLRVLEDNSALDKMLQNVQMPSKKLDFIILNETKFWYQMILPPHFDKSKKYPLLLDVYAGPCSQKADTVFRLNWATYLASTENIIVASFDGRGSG
Chain of MyD88 (in TT-loaded monocytes) (Q99836 whole entry): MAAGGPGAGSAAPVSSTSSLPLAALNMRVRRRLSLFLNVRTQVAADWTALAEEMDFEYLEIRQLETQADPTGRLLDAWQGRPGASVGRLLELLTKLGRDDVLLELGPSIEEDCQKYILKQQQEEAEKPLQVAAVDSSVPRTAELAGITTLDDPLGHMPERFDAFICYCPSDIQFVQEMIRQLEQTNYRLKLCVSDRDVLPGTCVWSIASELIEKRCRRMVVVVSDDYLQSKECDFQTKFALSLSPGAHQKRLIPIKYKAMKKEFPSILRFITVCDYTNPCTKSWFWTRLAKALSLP
T6 sequence (P27487 29-766 limits assumed): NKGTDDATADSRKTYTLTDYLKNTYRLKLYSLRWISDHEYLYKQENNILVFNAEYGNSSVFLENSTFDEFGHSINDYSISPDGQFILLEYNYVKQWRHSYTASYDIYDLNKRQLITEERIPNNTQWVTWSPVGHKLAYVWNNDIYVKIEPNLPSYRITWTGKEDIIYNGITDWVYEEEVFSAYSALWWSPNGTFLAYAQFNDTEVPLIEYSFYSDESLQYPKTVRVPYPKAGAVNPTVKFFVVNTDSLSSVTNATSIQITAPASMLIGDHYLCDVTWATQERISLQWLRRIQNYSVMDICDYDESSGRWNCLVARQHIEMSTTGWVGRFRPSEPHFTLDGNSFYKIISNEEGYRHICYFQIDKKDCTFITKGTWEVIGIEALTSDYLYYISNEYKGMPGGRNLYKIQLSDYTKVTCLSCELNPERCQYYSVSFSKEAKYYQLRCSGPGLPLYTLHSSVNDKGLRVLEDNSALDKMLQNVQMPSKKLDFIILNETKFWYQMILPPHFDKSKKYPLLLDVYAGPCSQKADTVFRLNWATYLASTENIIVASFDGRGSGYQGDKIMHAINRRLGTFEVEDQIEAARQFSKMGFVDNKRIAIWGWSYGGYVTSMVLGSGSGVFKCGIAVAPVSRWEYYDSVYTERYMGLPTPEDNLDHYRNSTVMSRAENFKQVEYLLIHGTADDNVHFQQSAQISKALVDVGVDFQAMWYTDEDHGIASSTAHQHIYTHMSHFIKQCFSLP

B1: caveolin-1 on the cell surface of TT-loaded monocytes (other)
chain: SGGKYVDSEGHLYTVPIREQGNIYKPNNKAMADELSEKQVYDAHTKEIDLVNRDPKHLNDDVVKIDFEDVIAEPEGTHSFDGIWKASFTTFTVTKYWFYRLLSALFGIPMALIWGIYFAILSFLHIWAVVPCIKSFLIEIQCISRVYSIYVHTVCDPLFEAVGKIFSNVRINLQKEI
notes: whole, on cells
B1: binds [1].

B2: endogenous caveolin-1 (THP-1 cell lysate, monocyte lysate) (other, human, UniProt Q03135 2-178, looked up)
chain: B1 chain
notes: Endogenous whole protein from cell lysates
B2: no binding [2]; no binding [3]; no binding [4]. B2: no binding [5]; binds [6].

B3: GST-Cav-1 (1-82) (other, UniProt Q03135 1-82, looked up)
chain: MSGGKYVDSEGHLYTVPIREQGNIYKPNNKAMADELSEKQVYDAHTKEIDLVNRDPKHLNDDVVKIDFEDVIAEPEGTHSFD
notes: range 1-82; not shown: GST of vector pGEX6p1
B3: no binding [7].

B4: GST-Cav-1 (102-178) (other, UniProt Q03135 102-178, looked up)
chain: LLSALFGIPMALIWGIYFAILSFLHIWAVVPCIKSFLIEIQCISRVYSIYVHTVCDPLFEAVGKIFSNVRINLQKEI
notes: range 102-178; not shown: GST of vector pGEX6p1
B4: no binding [7].

B5: GFP-fused full-length caveolin-1 (caveolin-1-GFP) in transfected cells (other, UniProt Q03135 1-178, looked up)
chain: MSGGKYVDSEGHLYTVPIREQGNIYKPNNKAMADELSEKQVYDAHTKEIDLVNRDPKHLNDDVVKIDFEDVIAEPEGTHSFDGIWKASFTTFTVTKYWFYRLLSALFGIPMALIWGIYFAILSFLHIWAVVPCIKSFLIEIQCISRVYSIYVHTVCDPLFEAVGKIFSNVRINLQKEI
notes: Expressed in HEK293 cells (with sCD26-TR) or stably in THP-1 cells (with Tollip); also called caveolin-1-EGFP; GFP-caveolin-1; not shown: EGFP of vector pEB6-CAG-EGFP
B5: binds [8].

B6: Texas red conjugated caveolin-1 (cav-TR) (other, UniProt Q03135 1-178, looked up)
chain: B5 chain
modifications: Texas red conjugated
notes: range 1-178; also called caveolin-1 wt recombinant protein
B6: binds [9]; no binding [10].
